# The DeepSol protein solubility set
# Assay: soluble on expression in E. coli; label from the status in PepcDB or PDB records
row,Sequence,soluble on expression in E. coli
1,MFTHLDENQQPRMVDISQKVAGDRRAVAQCIVQLPKAIKDYLTGQEIFLKKGPVIQTAIIAGTMAVKKTADLIPFCHTLPIHGCKFDINIVYQKRDYLEIFLQCAVNTNYKTGVEMEALCGVSVAALTIYDMCKSISSEIIIKNTKLIEKTGGKADVSQTPLYGLVLTGGKSRRMGKDKALINYQGQPHGQYIYDLLAKYCEQVFLSARPSQWQGTPLENLPTLVDRGESVGPMSGILTALQSYPGVNWLIIACDLAYINSTMVEKLIAQARQDLVATCYENADQGFPEALCGFYTPLALQLFTKAQNIGLHCPVKILQMADCQLIKPDNLFDIANINSPEDYGQINLEHHHHHH,not soluble
2,MFTHVESFKSAFLEKLETMYGKSFKDSTTRDQYNTLGYMVREYMNSQWIATNESYRSGERKQMYYLSIEFLLGRLLGSNILNLGIRDVCEQGLSELGISLQQLEEVEADAGLGNGGLGRLAACFLDSLASLDLPGHGCGIRYKHGLFDQKIVDGYQVEFPEQWLLHENVWEVRRHDQAVEVSYFGNVEPLYIDGRLEFRHTNAEVIMAVPYDVPVVGYETSTVNTLRLWNAEPVPFPQNCKDILKYKRETEAVSEFLYPDDTHDEGKILRLKQQYFLVSASLQNIVRLHRERYGDLRQLHEKIAIHINDTHPVLAIPELMRILLDEEKLAWEEAWHITTQTISYTNHTTLSEALEKWPIHIFKPLLPRIYMIIEEINERFCHELWERYPYEWHRIEEMAIIAHDLVKMAHLAIVGSHSVNGVAKIHTEILKQREMRLFYEFYPDKFNNKTNGIAHRRWLMKANPQLTNLISEAIGTEWKKEPIKLQELQLVQYDASFQEKFAEVKQERKEILAERIHNTMGITIDPNSIFDVQVKRLHAYKRQLLNVLHILYLYNRLKEDASFTFYPRTFIFGAKASPGYYYAKKIIKLINELARKVNNDPYVSQYMKVIFLENYRVSLAEDIFPAADVSEQISTASKEASGTGNMKFMMNGAITLGTLDGANIEIKDRVGDDNCFIFGLTAEEVLHYYQNGGYRASDYYHHNGHIKKVVDQLTNGFFAQSGAEFEAIYDSLVIQNDEYFVLRDFGPYAERQEAVGRAYENRTKWLEMSILNIAQSGHFASDRTILQYSNEIWGIGNTVTQI,not soluble
3,MGAGASAEEKHSRELEKKLKEDAEKDARTVKLLLLGAGESGKSTIVKQMKIIHQDGYSLEECLEFIAIIYGNTLQSILAIVRAMTTLNIQYGDSARQDDARKLMHMADTIEEGTMPKEMSDIIQRLWKDSGIQACFDRASEYQLNDSAGYYLSDLERLVTPGYVPTEQDVLRSRVKTTGIIETQFSFKDLNFRMFDVGGQRSERKKWIHCFEGVTAIIFCVALSDYDLVLAEDEEMNRMHESMKLFDSICNNKWFTDTSIILFLNKKDLFEEKIKKSPLTICYPEYAGSNTYEEAGNYIKVQFLELNMRRDVKEIYSHMTCATDTQNVKFVFDAVTDIIIKENLKDCGLF,soluble
4,MGALGYHPYFESNMIHSMTAFAADEHLTPWGLLACELRSVNHRFLDIVIRLPEELRALEPQLRERVAARVSRGKLDLTVRLSPQEIHTGKLVVNELLLSQLSTLALRLSAQFPALRVTFAELLQIPGVLKGEQIDMATLQGHAVALLDKVLNNFIATREREGLKMQAMIAQRASAIERIVGEVRILIPTIREGQHNKLSARMNHLSYPVDPGRIEQELVLWLQKLDVDEELDRLSSHISELHRILQQREPVGRRLDFLMQEFNREANTLGSKSVDSRTSNATIELKVLIDQIREQVQNIE,soluble
5,MGAQYLKRVYLMSVIAETNEALLAKIKALCGDYLREVDTHPGQWDDSSVRRLVRNPPAVYVAWLGQQPNNNPHTVTARWGVFVVAEVLNGQRRNAVGIYQIVETLTAGLHKQRIAPSGMFELQTVQNLWSDTQSGMGVAVYGMYFNAVQPLPDMTSDDTLCDFKIYDHTFNQDKDEHTIDGKTRLTVELPTQSD,not soluble
6,MGARCDVAVIGAGPAGCAAAIALKRLGVASVLLLEAGDGARPRFGESLPPDIRLILAQLGLAEAFAALGFDPCVGAASSWGEDGLGYNDFLFNPHGLGWHIDRARFDAFLRDAAVAAGAELRFDTVFDSVVMTGDAARLRVRGERGDETITAGFVLDATGRAARVARALGAERIESDRLVCAAALIRIDPDGLLGQRSLLEAVDYGWWYAARLSPDEAIVVVSTDADLLRARRLHRSDAWYGHLAATRHVAAALGTAAPPSQLMVRQARSSRLSRAADQRWRAIGDAASVYDPIMAQGVTKAMIEGLAAARDIVRHMPDAEEGLDARFADYLSLRDYFYGQEGRWPDAPFWTRRRRPQPAVRTLWEVSALEHHHHHH,not soluble
7,MGASGRICTVVPVEDAGEAAMLALSSPTGCVELRLDFYPGDPGEALELLATRLHSPARVVVTLRSAGHGGLDRRARGERRAVLARLEDLAPEGWLVDYEVEDLHASSGCSGCIASSHPTTPPTPRRALEEAAVAERLGASAYKLVYPGVEPWEQAAAARLVAEAGGFATSFTLGPGTLASRLTALALGAPLVFGSHPRAPLDGVPQSSEIMELYLRMGLGES,not soluble
8,MGASKYDVKRLVDDYVNRLAKNGVLPDVIDKEPILPRVTLPESEITSQSYRKYPKKPKAIGKVGSTGGNRNGMGAIHPTLISYPEEQRKTNSRVKNNRSNYHIGNIGNIGGNIGNGQKMNRNKNGGRNQGGNHPDNMGIPMFPIARPTPYDLAEYIERGLNTGRSNHRTPQNFRRYPEHECDYYAGPCATSF,not soluble
9,MGEAAVAEGPCPLLEDSFTRFSSQSNVYGLAGGADGRGELLAATLKGKVLGFRYQDLRQKIRPVAKELQFNYIPVDAEIVSIDTFNKSPPKRGLVVGITFIKDSGDKGSPFLNIYCDYEPGSEYNLDSIAESCLNLELQFTPFQLCHAEVQVGDQLETVFLLSGNDPAIHLYKENEGLHQFEEQPVENLFPELTNLTSSVLWLDVHNLPGSSQRLSALGCQSGYVRVAHVDQKNQEILQTWTIQQDGPISRVIVFSLSASEATQDSPQQEGYSLLVASMLEPAVVYWDLLNKGLDDQLLLPGSDQFDSVLCGLVTDVDLDGQLEVLVATYGQELLCYKYRGLPEDSRGFRLLWRRSFASPLLAMAHVDLTGDGLRELAVISLKGVHILQHSLIQASELVLTRLRHQVEQRKHQQGLGDRVGPRPVEHPAS,soluble
10,MGEAVEVMFGNGFPEIHKATSPTQTLHSNQQDCHWYEETIDDDLKWSFALNSVLHQGTSEYQDIALLDTKRFGKVLVIDGKMQSAERDEFIYHECLIHPALLFHPNSPKTVFIMGGGEGSAAREILKHTTIEKVVMCDIDQEVVDFCRRFLTVNSDAFCNKKLELVIKDAKAELEKREEKFDIIVGDLADPVEGGPCYQLYTKSFYQNILKPKLSPNGIFVTQAGPAGIFTHKEVFTSIYNTMKQVFKYVKAYTAHVPSFADTWGWVMASDHEFDVEVDEMDRRIEERVNGELMYLNAPSFVSAATLNKTISLALEKETEVYSEENARFIHGHGVAYRHI,soluble
11,MGENSLWNVYKTVSFWKVMKNFIIIQIARYTPCLSVKNWLYRTFLRMKVGKKTSFALMVMPDIMFPEKITVGENSIIGYNTTLLAHEYLIREYRLGEIVIGNEVMIGANVTILPGVKIGDGATVSAGTLVHRDVPSGAFVGGNPMRIIYTKEQMTAREGLEHHHHHH,not soluble
12,MGFDASVLKSVLEQFVDEIGEESVDLIEDRPRFAHAVVVVTDDATGELCQASCIRQLDDVILHETSVANVTSEWMDEEIQRALRELTESRELLDTPRNSVFVEEKHEKQKTVTTTTTSTETSRNTSSRVEFPSMARRTRSTSAARRFN,not soluble
13,MGGDSVAIFTADMSVSGELRNDIELHLRRGIESDALRLVYLPEVDLRTGDIVGTEALVRWQHPTRGLLAPGCFIPVAESINLAGELDRWVLRRACNEFSEWQSAGLGHDALLRINVSAGQLVTGGFVDFVADTIGQHGLDASSVCLEITENVVVQDLHTARATLARLKEVGVHIAIDDFGTGYSAISLLQTLPIDTLKIDKTFVRQLGTNTSDLVIVRGIMTLAEGFQLDVVAEGVETEAAARILLDQRCYRAQGFLFSRPVPGEAMRHMLSARRLPPTCILEHHHHHH,not soluble
14,MGGIARLYGDSALAHFSQAHVCVVGVGGVGSWAVEALARTGIGRLTLIDLDNVAESNVNRQLHALTGDFGKAKVTALRERITQINPQCEVFEIEDFVTEDNLPEYFGKGFDFVIDAIDQVRVKAAMAAYFVERKQPFVLSGGAGGQKNPALIQTADLSRVTHDPLLANLRYTLRKRYGFSRDTKANMRVPCVYSTENIVPPQSREACSADAAPQGLSCAGYGASMLVTASFGLYCAQAAVEHIADKKLEHHHHHH,not soluble
15,MGGSFGKKGASSATAAQVPLATETTPGLMSPSEKLKLSTLTTSIATSDFYASYDFMMHSIGLTSANNISLLSTGNISLQNILSEGNHFGVQPIVSSTTANASFLAGMLMAIFPKESELEVTVYFKTPSAFNPAQLTVIGSTSIGLGISDRSGLIIENGNAFGGIVKASAATETGSTYALSTSTWYICKFKMLTDDRFKVTLYSDSGTQLYSYTSTAAMFRADNATAHIGFKTQCKTATAGISLISIDLIEFKAKVSATRAKV,soluble
16,MGGSHHHHHHGMASALDPAGGPRGVLPRPCRVLVLLNPRGGKGKALQLFRSHVQPLLAEAEISFTLMLTERRNHARELVRSEELGRWDALVVMSGDGLMHEVVNGLMERPDWETAIQKPLCSLPAGSGNALAASLNHYAGYEQVTNEDLLTNCTLLLCRRLLSPMNLLSLHTASGLRLFSVLSLAWGFIADVDLESEKYRRLGEMRFTLGTFLLLAALRTYRGRLAYLPVGRVGSKTPASPVVVQQGPVDAHLVPLEEPVPSHWTVVPDEDFVLVLALLHSHLGSEMFAAPMGRCAAGVMHLFYVRAGVSRAMLLRLFLAMEKGRHMEYECPYLVYVPVVAFRLEPKDGKGVFAVDGELMVSEAVQGQVHPNYFWMVSGCVEPPPSWKPQQMPPPEEPL,not soluble
17,MGGSHHHHHHGMASALFRMLNSSFEDDPFFSESILAHRENMRQMIRSFSEPFGRDLLSISDGRGRAHNRRGHNDGEDSLTHTDVSSFQTMDQMVSNMRNYMQKLERNFGQLSVDPNGHSFCSSSVMTYSKIGDEPPKVFQASTQTRRAPGGIKETRKAMRDSDSGLEKMAIGHHIHDRAHVIKKSKNKKTGDEEVNQEFINMNESDAHAFDEEWQSEVLKYKPGRHNLGNTRMRSVGHENPGSRELKRREKPQQSPAIEHGRRSNVLGDKLHIKGSSVKSNKK,not soluble
18,MGGSHHHHHHMASSVPIPGIKDISKLKFFYGFKYLWNPTVYNKIFDKLDLTKTYKHPEELKVLDLYPGVGIQSAIFYNKYCPRQYSLLEKRSSLYKFLNAKFEGSPLQILKRDPYDWSTYSNLIDEERIFVPEVQSSDHINDKFLTVANVTGEGSEGLIMQWLSCIGNKNWLYRFGKVKMLLWMPSTTARKLLARPGMHSRSKCSVVREAFTDTKLIAISDANELKGFDSQCIEEWDPILFSAAEIWPTKGKPIALVEMDPIDFDFDVDNWDYVTRHLMILKRTPLNTVMDSLGHGGQQYFNSRITDKDLLKKCPIDLTNDEFIYLTKLFMEWPFKPDILMDFVDMYQTEHSG,soluble
19,MGGTSYLIVGNEGNILIDCPALDQTNLNFLRSHGGVRWLFLTHRGAIGRTAEIQQNYGCDILIQEQEAYLLPGLTVTTFTQEFAVTPTAKAIWTPGHSPGSSCLYYNHQGGVLFSGRHLLPNQKGEPVPLRTAKTFHWPRQIKSLQTILETLTPETLQYICPGANTGFLRGKRSIDTAYQRLASLDLKALLQTQPLEHHHHHH,not soluble
